Target: the molecule itself
Experiment: FRET or BRET; HEK293T biosensor cells co-expressing the CFP and the YFP fusion of one aSyn variant, seeded with increasing amounts of sonicated recombinant full-length aSyn(WT) fibrils with Lipofectamine 2000, 48 h, CFP-YFP FRET by flow cytometry, normalized to aSyn(WT) with 100 nM fibrils

B1: aSyn amino acids 35 to 110, CFP/YFP (domain or fragment)
chain: not shown
fold sensitivity of the biosensor against full-length WT aSyn: ≥ 4 fold

From PMC10610913, “Saturation mutagenesis of α-synuclein reveals monomer fold that modulates aggregation” (Science Advances, 2023)
